Experimental data from the Human Domainome abundance scans (Beltran et al. 2025).
± gives the uncertainty stated by the source.

B1: POU domain, class 4, transcription factor 3, residues 185 to 256; numbered along this chain, Q15319 (parent)
chain: RELEAFAERFKQRRIKLGVTQADVGAALANLKIPGVGSLSQSTICRFESLTLSHNNMIALKPVLQAWLEEAE

Variants of: B1
Assay: abundance fitness (aPCA) (normalised: wild type 0, dead -1); higher = more abundant; growth selection in yeast, the domain comes from the species named
Conditions: Homo sapiens

Compared with K11P, G35K is higher in abundance fitness: -0.751 ± 0.37 for the first, -0.291 ± 0.051 for the second.

First: G35P
Second: G35M
The abundance fitness of the first is lower: -0.285 ± 0.06 for the first, -0.099 ± 0.087 for the second.

G35Q and G35F are within error of each other in abundance fitness: -0.076 ± 0.048 for the first, -0.231 ± 0.14 for the second.

First: E2Y
Second: E2H
The abundance fitness of the first is lower: -0.686 ± 0.21 for the first, -0.221 ± 0.17 for the second.

E2M and E2L are within error of each other in abundance fitness: -0.437 ± 0.13 for the first, -0.421 ± 0.04 for the second.

Going from M57G to M57A, the abundance fitness rises from -0.634 ± 0.15 to -0.173 ± 0.11.

M57S and N56G are within error of each other in abundance fitness: -0.156 ± 0.14 for the first, -0.035 ± 0.41 for the second.

N56C and N56L are within error of each other in abundance fitness: -0.036 ± 0.25 for the first, 0.105 ± 0.13 for the second.

K61M and K61I are within error of each other in abundance fitness: 0.02 ± 0.1 for the first, -0.128 ± 0.069 for the second.

Going from K61Y to K61P, the abundance fitness falls from -0.038 ± 0.058 to -1.12 ± 0.18.

Compared with K61Q, K61N is lower in abundance fitness: -0.222 ± 0.11 for the first, -0.658 ± 0.092 for the second.

G25D and G25H are within error of each other in abundance fitness: -0.392 ± 0.25 for the first, -0.269 ± 0.21 for the second.

G25Q and G25F are within error of each other in abundance fitness: -0.531 ± 0.36 for the first, -0.13 ± 0.098 for the second.

G25V and G25S are within error of each other in abundance fitness: 0.05 ± 0.069 for the first, -0.13 ± 0.13 for the second.

G25E and G25A are within error of each other in abundance fitness: -0.054 ± 0.17 for the first, 0.117 ± 0.11 for the second.

T20H and T20G are within error of each other in abundance fitness: -0.221 ± 0.068 for the first, -0.25 ± 0.03 for the second.

Going from T20S to T20R, the abundance fitness falls from -0.095 ± 0.073 to -0.258 ± 0.022.

Going from E72V to E72C, the abundance fitness rises from -0.265 ± 0.025 to -0.175 ± 0.051.

E72H and E72A are within error of each other in abundance fitness: -0.378 ± 0.053 for the first, -0.31 ± 0.03 for the second.

E72M and E72K are within error of each other in abundance fitness: -0.36 ± 0.038 for the first, -0.384 ± 0.052 for the second.

First: W67N
Second: W67H
The abundance fitness of the first is higher: -0.491 ± 0.16 for the first, -0.795 ± 0.11 for the second.

Going from W67T to W67F, the abundance fitness rises from -0.697 ± 0.11 to -0.06 ± 0.065.

W67I and W67C are within error of each other in abundance fitness: -0.752 ± 0.17 for the first, -0.496 ± 0.22 for the second.

Compared with W67S, S38M is higher in abundance fitness: -0.684 ± 0.14 for the first, -0.006 ± 0.03 for the second.

S38C and S38R are within error of each other in abundance fitness: -0.27 ± 0.21 for the first, -0.052 ± 0.14 for the second.

S38N and S38L are within error of each other in abundance fitness: 0.022 ± 0.021 for the first, -0.031 ± 0.036 for the second.

First: S38A
Second: S38H
The abundance fitness of the first is lower: -0.346 ± 0.23 for the first, -0.018 ± 0.036 for the second.

S38V and Q12L are within error of each other in abundance fitness: 0.065 ± 0.16 for the first, -0.066 ± 0.032 for the second.

Q12S and N55Y are within error of each other in abundance fitness: -0.083 ± 0.047 for the first, -0.161 ± 0.2 for the second.

N55S and A71Y are within error of each other in abundance fitness: -0.061 ± 0.23 for the first, -0.064 ± 0.041 for the second.

First: A71R
Second: A71G
The abundance fitness of the first is higher: -0.005 ± 0.043 for the first, -0.226 ± 0.03 for the second.

A71T and A71E are within error of each other in abundance fitness: -0.085 ± 0.062 for the first, -0.103 ± 0.05 for the second.

Compared with P62V, P62K is higher in abundance fitness: -0.378 ± 0.033 for the first, -0.177 ± 0.052 for the second.

P62T and P62S are within error of each other in abundance fitness: -0.221 ± 0.042 for the first, -0.188 ± 0.031 for the second.

Going from P62I to P62R, the abundance fitness rises from -0.753 ± 0.1 to -0.376 ± 0.036.

P62H and A29C are within error of each other in abundance fitness: -0.109 ± 0.12 for the first, 0.031 ± 0.085 for the second.

A29L and A29V are within error of each other in abundance fitness: -0.21 ± 0.059 for the first, -0.2 ± 0.072 for the second.

A29I and A29G are within error of each other in abundance fitness: -0.258 ± 0.25 for the first, -0.022 ± 0.077 for the second.

A29H and A29Q are within error of each other in abundance fitness: -0.083 ± 0.14 for the first, 0.123 ± 0.11 for the second.

Going from A29S to L39G, the abundance fitness falls from -0.09 ± 0.086 to -0.912 ± 0.23.

L39F and L52P are within error of each other in abundance fitness: -0.687 ± 0.5 for the first, -0.984 ± 0.49 for the second.

F10L and F10R are within error of each other in abundance fitness: -0.697 ± 0.27 for the first, -0.653 ± 0.33 for the second.

Compared with F10V, E70V is higher in abundance fitness: -0.765 ± 0.1 for the first, -0.307 ± 0.036 for the second.

E70S and E70D are within error of each other in abundance fitness: -0.034 ± 0.032 for the first, -0.118 ± 0.069 for the second.

First: E70N
Second: E70F
The abundance fitness of the first is higher: 0.114 ± 0.056 for the first, -0.397 ± 0.043 for the second.

L50R and L50Q are within error of each other in abundance fitness: 0.053 ± 0.03 for the first, 0.124 ± 0.07 for the second.

L50T and L50S are within error of each other in abundance fitness: -0.101 ± 0.027 for the first, 0.041 ± 0.22 for the second.

Compared with L50W, T43A is higher in abundance fitness: -0.717 ± 0.21 for the first, -0.148 ± 0.055 for the second.

T43I and T43D are within error of each other in abundance fitness: -0.089 ± 0.41 for the first, -0.29 ± 0.24 for the second.

First: T43G
Second: T43V
The abundance fitness of the first is lower: -0.65 ± 0.088 for the first, -0.031 ± 0.045 for the second.

T43K and T43C are within error of each other in abundance fitness: -0.153 ± 0.096 for the first, -0.333 ± 0.23 for the second.

T43Q and C45Q are within error of each other in abundance fitness: -0.105 ± 0.14 for the first, 0.003 ± 0.063 for the second.

C45F and C45H are within error of each other in abundance fitness: -0.001 ± 0.038 for the first, 0.053 ± 0.079 for the second.

C45S and C45L are within error of each other in abundance fitness: -0.042 ± 0.053 for the first, -0.06 ± 0.038 for the second.

Compared with C45M, L17H is lower in abundance fitness: -0.048 ± 0.083 for the first, -0.871 ± 0.24 for the second.

L17F and L17K are within error of each other in abundance fitness: -0.405 ± 0.12 for the first, -0.466 ± 0.19 for the second.

L17Y and L17R are within error of each other in abundance fitness: -0.448 ± 0.14 for the first, -0.543 ± 0.37 for the second.

L17V and V63D are within error of each other in abundance fitness: -0.682 ± 0.21 for the first, -0.585 ± 0.27 for the second.

V63W and V63P are within error of each other in abundance fitness: -0.022 ± 0.094 for the first, -0.161 ± 0.087 for the second.

First: V63G
Second: V63Q
The abundance fitness of the first is lower: -0.545 ± 0.06 for the first, -0.34 ± 0.094 for the second.

V63T and V63A are within error of each other in abundance fitness: -0.254 ± 0.11 for the first, -0.135 ± 0.095 for the second.

Compared with V63S, L64S is lower in abundance fitness: -0.162 ± 0.12 for the first, -0.768 ± 0.076 for the second.

L64E and L64G are within error of each other in abundance fitness: -0.788 ± 0.049 for the first, -0.836 ± 0.037 for the second.

First: L64Y
Second: L64K
The abundance fitness of the first is higher: -0.322 ± 0.069 for the first, -0.678 ± 0.066 for the second.

E8N and E8F are within error of each other in abundance fitness: -0.434 ± 0.35 for the first, -0.005 ± 0.12 for the second.

First: E8A
Second: E8Y
The abundance fitness of the first is higher: 0.022 ± 0.081 for the first, -0.236 ± 0.13 for the second.

Going from E8P to E8M, the abundance fitness rises from -0.698 ± 0.19 to -0.003 ± 0.059.

E8D and R9M are within error of each other in abundance fitness: -0.05 ± 0.14 for the first, 0.111 ± 0.045 for the second.

Going from R9A to R9F, the abundance fitness falls from -0.045 ± 0.077 to -0.33 ± 0.039.

Compared with R9H, R9P is lower in abundance fitness: -0.018 ± 0.1 for the first, -0.642 ± 0.48 for the second.

Going from R46W to R46E, the abundance fitness rises from -0.334 ± 0.14 to 0.025 ± 0.17.

First: R46F
Second: R46N
The abundance fitness of the first is lower: -0.519 ± 0.13 for the first, 0.094 ± 0.081 for the second.

Compared with R46I, R46M is higher in abundance fitness: -0.806 ± 0.16 for the first, -0.184 ± 0.1 for the second.

Compared with L60A, F47S is lower in abundance fitness: -0.289 ± 0.17 for the first, -0.747 ± 0.081 for the second.

F47I and F47C are within error of each other in abundance fitness: -0.836 ± 0.17 for the first, -0.982 ± 0.15 for the second.

F47H and F47T are within error of each other in abundance fitness: -1.06 ± 0.33 for the first, -0.94 ± 0.19 for the second.

Q21W and Q21C are within error of each other in abundance fitness: -0.331 ± 0.094 for the first, -0.243 ± 0.34 for the second.

Q21D and Q21T are within error of each other in abundance fitness: -0.262 ± 0.42 for the first, -0.193 ± 0.21 for the second.

R1D and R1C are within error of each other in abundance fitness: -0.419 ± 0.17 for the first, -0.229 ± 0.065 for the second.

R1N and R1G are within error of each other in abundance fitness: -0.153 ± 0.2 for the first, 0.002 ± 0.041 for the second.

R1E and R1A are within error of each other in abundance fitness: -0.093 ± 0.1 for the first, -0.282 ± 0.14 for the second.

Compared with K16P, K16Y is higher in abundance fitness: -0.968 ± 0.049 for the first, -0.195 ± 0.091 for the second.

K16R and K16T are within error of each other in abundance fitness: -0.01 ± 0.027 for the first, -0.063 ± 0.033 for the second.

With K16E the abundance fitness was 0.077 ± 0.067.
